The results in this text go back to patent publication US20120189541A1 (AbbVie / Abbott, published 2012).

Assay [1] concerns the target T1, Recombinant Human IL-1α (human, UniProt P01583 113-271).
T1 sequence (looked up): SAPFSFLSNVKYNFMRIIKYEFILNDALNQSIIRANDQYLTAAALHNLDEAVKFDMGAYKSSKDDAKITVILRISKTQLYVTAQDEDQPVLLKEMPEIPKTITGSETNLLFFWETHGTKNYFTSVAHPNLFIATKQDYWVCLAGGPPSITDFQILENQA
As to the kind of experiment: cell-based or functional assay.

In assay [2] the target is T2, Recombinant Human IL-1β (human, UniProt P01584 117-269). In words: cell-based or functional assay.
In a further assay the target is T3, Cynomolgus IL-1α (cynomolgus, UniProt P79340 113-271, limits assumed).
T3 sequence (looked up): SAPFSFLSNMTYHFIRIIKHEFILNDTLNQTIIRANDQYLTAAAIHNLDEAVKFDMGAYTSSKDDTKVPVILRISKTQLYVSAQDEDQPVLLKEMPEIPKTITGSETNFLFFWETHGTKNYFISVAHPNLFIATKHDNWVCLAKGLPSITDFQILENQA
In words: cell-based or functional assay.

The target of another assay is T4, Cynomolgus IL-1β (cynomolgus, UniProt P79182 117-268, limits assumed).
T4 sequence (looked up): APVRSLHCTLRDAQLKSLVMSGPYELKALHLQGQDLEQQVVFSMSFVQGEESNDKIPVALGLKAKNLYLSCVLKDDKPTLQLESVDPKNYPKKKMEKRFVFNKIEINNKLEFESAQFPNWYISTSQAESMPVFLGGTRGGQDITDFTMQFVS
In words: cell-based or functional assay.

Assay [3] addresses T1, Recombinant Human IL-1α. As to the kind of experiment: SPR (BIACORE), human antigen. The method, then:
(§1) The BIACORE assay (Biacore, Inc, Piscataway, N.J.) determines the affinity of antibodies or DVD-Ig molecule with kinetic measurements of on-rate and off-rate constants. Binding of antibodies or DVD-Ig molecule to a target antigen (for example, a purified recombinant target antigen) is determined by surface plasmon resonance-based measurements with a Biacore® 1000 or 3000 instrument (Biacore® AB, Uppsala, Sweden) using running HBS-EP (10 mM HEPES [pH 7.4], 150 mM NaCl, 3 mM EDTA, and 0.005% surfactant P20) at 25° C. All chemicals are obtained from Biacore® AB (Uppsala, Sweden) or otherwise from a different source as described in the text. For example, approximately 5000 RU of goat anti-mouse IgG, (Fcγ), fragment specific polyclonal antibody (Pierce Biotechnology Inc, Rockford, Ill.) diluted in 10 mM sodium acetate (pH 4.5) is directly immobilized across a CM5 research grade biosensor chip using a standard amine coupling kit according to manufacturer's instructions and procedures at 25 μg/ml. Unreacted moieties on the biosensor surface are blocked with ethanolamine. Modified carboxymethyl dextran surface in flowcell 2 and 4 is used as a reaction surface. Unmodified carboxymethyl dextran without goat anti-mouse IgG in flow cell 1 and 3 is used as the reference surface. For kinetic analysis, rate equations derived from the 1:1 Langmuir binding model are fitted simultaneously to association and dissociation phases of all eight injections (using global fit analysis) with the use of Biaevaluation 4.0.1 software. Purified antibodies or DVD-Ig molecule are diluted in HEPES-buffered saline for capture across goat anti-mouse IgG specific reaction surfaces. Antibodies or DVD-Ig molecule to be captured as a ligand (25 μg/ml) are injected over reaction matrices at a flow rate of 5 μl/min. The association and dissociation rate constants, kₒₙ (M⁻¹s⁻¹) and koff (s⁻¹) are determined under a continuous flow rate of 25 μl/minute. Rate constants are derived by making kinetic binding measurements at different antigen concentrations ranging from 10-200 nM. The equilibrium dissociation constant (M) of the reaction between antibodies or DVD-Ig molecules and the target antigen is then calculated from the kinetic rate constants by the following formula: KD=koff/kₒₙ. Binding is recorded as a function of time and kinetic rate constants are calculated.
(In general: Surface plasmon resonance follows binding to a sensor surface in real time, without labels.)

For assay [4], the target named is T2, Recombinant Human IL-1β. As to the kind of experiment: SPR (BIACORE), human antigen. The method, then: as §1

B1: E26.35-SS-3D12.10/15 (bispecific antibody, human IgG1, kappa, L234A L235A)
heavy: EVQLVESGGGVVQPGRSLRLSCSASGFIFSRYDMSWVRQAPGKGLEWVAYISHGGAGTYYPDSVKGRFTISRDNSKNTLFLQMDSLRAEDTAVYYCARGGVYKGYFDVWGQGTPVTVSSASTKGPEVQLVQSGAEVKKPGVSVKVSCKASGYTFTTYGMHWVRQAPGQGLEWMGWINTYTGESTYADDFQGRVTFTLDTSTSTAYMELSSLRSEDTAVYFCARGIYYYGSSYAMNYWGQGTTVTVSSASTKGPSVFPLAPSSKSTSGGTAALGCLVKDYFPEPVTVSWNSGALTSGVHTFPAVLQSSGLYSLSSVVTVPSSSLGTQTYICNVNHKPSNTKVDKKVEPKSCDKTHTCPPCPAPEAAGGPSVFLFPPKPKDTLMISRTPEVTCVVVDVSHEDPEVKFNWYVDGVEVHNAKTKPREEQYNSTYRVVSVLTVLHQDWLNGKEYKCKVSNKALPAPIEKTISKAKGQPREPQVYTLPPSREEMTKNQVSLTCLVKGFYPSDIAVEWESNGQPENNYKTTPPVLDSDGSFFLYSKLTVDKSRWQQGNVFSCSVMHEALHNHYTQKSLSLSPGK
light: DIQMTQSPSSLSASVGDRVTITCRASGNIHNYLTWYQQTPGKAPKLLIYNAKTLADGVPSRFSGSGSGTDYTFTISSLQPEDIATYYCQHFWSIPYTFGQGTKLQITRTVAAPDIQMTQSPSSLSASVGDRVTITCRASQDISNMLNWYQQKPGKTPKLLIYYTSRLYPGVPSRFSGSGSGTDYTFTISSLQPEDIATYFCQQGKTLPYAFGQGTKLEIKRTVAAPSVFIFPPSDEQLKSGTASVVCLLNNFYPREAKVQWKVDNALQSGNSQESVTEQDSKDSTYSLSSTLTLSKADYEKHKVYACEVTHQGLSSPVTKSFNRGEC
notes: DVD-Ig, outer domain anti-IL-1β, inner domain anti-IL-1α, short linkers
Regarding B1, in the assay with Recombinant Human IL-1α [1], the “Human IL-1α Neutralization Assay EC50 (IL-1 induced hIL-8, MRC-5 cells)” value is 0.0479 nM. In addition, in the assay with Recombinant Human IL-1β [2], the “Human IL-1β Neutralization Assay EC50 (IL-1 induced hIL-8, MRC-5 cells)” value is 0.002 nM. The “Cyno IL-1α Neutralization Assay EC50 (IL-1 induced hIL-8, MRC-5 cells)” value with Cynomolgus IL-1α turned out to be 0.081 nM. Moreover, the “Cyno IL-1β Neutralization Assay EC50 (IL-1 induced hIL-8, MRC-5 cells)” value with Cynomolgus IL-1β came to 0.0121 nM. Moreover, in the assay with Recombinant Human IL-1α [3], the Kd (in general, the constant that tells how readily two partners part at equilibrium) was found to be 0.403 nM; the koff (commonly the rate constant with which the complex falls apart) worked out at 2.34e-05 s⁻¹; the kon (as a rule, the rate constant with which the complex forms) stood at 58100 M⁻¹ s⁻¹. In the assay with Recombinant Human IL-1β [4], the Kd was determined as 0.00611 nM, the koff is 7.85e-06 s⁻¹ and the on-rate (kon) worked out at 1.28e+06 M⁻¹ s⁻¹.
